Data from publication PMC5503513, “Tandem hnRNP A1 RNA recognition motifs act in concert to repress the splicing of survival motor neuron exon 7”.

Experiments:
[1] = molecular target: T1, hnRNP A1 RRM1 (UniProt P09651 2-97); test: ITC; ITC: 10 mM NaPi pH 6.5, 10 mM 2-mercaptoethanol, 30 C, protein titrated into RNA; NMR: 10 mM NaPi pH 6.5, 1 mM DTT (303 K stated for UP1-R140A:ISS-N1-u25g); conditions: protein: recombinant; single strand
[2] = molecular target: hnRNP A1 RRM1 F23A (UniProt P09651 2-97, F23A); test: as above; conditions: protein: recombinant; single strand
Chain of hnRNP A1 RRM1 F23A (P09651 2-97 F23A): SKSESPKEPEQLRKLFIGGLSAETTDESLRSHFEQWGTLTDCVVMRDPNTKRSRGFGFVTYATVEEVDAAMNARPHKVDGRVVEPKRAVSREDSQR

[3] = molecular target: hnRNP A1 UP1 r1R2 (Homo sapiens, UniProt P09651 2-196, F17A;F59A); test: ITC; 10 mM sodium phosphate pH 6.5, 10 mM 2-mercaptoethanol, no added salt, 30 C; RNA 5-10 uM in the cell; 1:1 fit; conditions: extra N-terminal Gly-Gly in PDB 2LYV (left out)
Chain of hnRNP A1 UP1 r1R2 (P09651 2-196 F17A/F59A): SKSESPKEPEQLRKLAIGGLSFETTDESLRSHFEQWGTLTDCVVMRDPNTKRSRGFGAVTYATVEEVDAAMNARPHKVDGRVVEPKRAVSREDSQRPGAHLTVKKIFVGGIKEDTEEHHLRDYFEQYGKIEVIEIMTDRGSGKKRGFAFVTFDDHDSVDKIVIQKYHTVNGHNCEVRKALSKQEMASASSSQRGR

[4] = molecular target: T2, hnRNP A1 RRM2 R140A (UniProt P09651 95-196, R140A); test: as above; conditions: none in PDB 5MPL
T2 sequence (P09651 95-196 R140A): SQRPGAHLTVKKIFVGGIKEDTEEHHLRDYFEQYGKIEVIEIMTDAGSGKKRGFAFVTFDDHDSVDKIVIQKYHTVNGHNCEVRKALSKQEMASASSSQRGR

[5] = molecular target: hnRNP A1 UP1 R1r2 (Homo sapiens, UniProt P09651 2-196, F108A;F150A); test: as above; conditions: extra N-terminal Gly-Gly in PDB 2LYV (left out)
Chain of hnRNP A1 UP1 R1r2 (P09651 2-196 F108A/F150A): as the sequence (P09651 2-196 F17A/F59A) above, with A16F, A58F, F107A, F149A counted along it

[6] = molecular target: T3, hnRNP A1 RRM2 (UniProt P09651 95-196); test: ITC; ITC: 10 mM NaPi pH 6.5, 10 mM 2-mercaptoethanol, 30 C, protein titrated into RNA; NMR: 10 mM NaPi pH 6.5, 1 mM DTT (303 K stated for UP1-R140A:ISS-N1-u25g); conditions: protein: recombinant; single strand
T3 sequence (P09651 95-196): as the sequence (P09651 95-196 R140A) above, with A46R counted along it

[7] = molecular target: hnRNP A1 RRM2 E176Q (UniProt P09651 95-196, E176Q); test: as above; conditions: protein: recombinant; single strand
Chain of hnRNP A1 RRM2 E176Q (P09651 95-196 E176Q): as the sequence (P09651 95-196 R140A) above, with A46R, E82Q counted along it

[8] = molecular target: T2, hnRNP A1 RRM2 R140A; test: as above; conditions: protein: recombinant; single strand
[9] = molecular target: UP1 r1R2 (UniProt P09651 1-196, F17A;F59A); test: as above; conditions: protein: recombinant; single strand
Chain of UP1 r1R2 (P09651 1-196 F17A/F59A): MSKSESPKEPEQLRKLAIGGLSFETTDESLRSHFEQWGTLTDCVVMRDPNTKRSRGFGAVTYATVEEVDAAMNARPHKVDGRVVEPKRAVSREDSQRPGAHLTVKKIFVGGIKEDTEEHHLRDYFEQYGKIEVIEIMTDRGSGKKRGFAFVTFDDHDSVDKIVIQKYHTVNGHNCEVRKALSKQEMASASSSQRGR

[10] = molecular target: T1, hnRNP A1 RRM1; test: ITC; range, no saturation; ITC: 10 mM NaPi pH 6.5, 10 mM 2-mercaptoethanol, 30 C, protein titrated into RNA; NMR: 10 mM NaPi pH 6.5, 1 mM DTT (303 K stated for UP1-R140A:ISS-N1-u25g); conditions: protein: recombinant; single strand
[11] = molecular target: T2, hnRNP A1 RRM2 R140A; test: as above; conditions: protein: recombinant; single strand
[12] = molecular target: T1, hnRNP A1 RRM1; test: ITC; 10 mM sodium phosphate pH 6.5, 10 mM 2-mercaptoethanol, no added salt, 30 C; RNA 5-10 uM in the cell; 1:1 fit; conditions: one extra N-terminal Ala in PDB 5MPG (left out)
[13] = molecular target: hnRNP A1 RRM2 M186A (UniProt P09651 95-196, M186A); test: as above; conditions: none in PDB 5MPL
Chain of hnRNP A1 RRM2 M186A (P09651 95-196 M186A): as the sequence (P09651 95-196 R140A) above, with A46R, M92A counted along it

[14] = molecular target: hnRNP A1 RRM2 Y167F (UniProt P09651 95-196, Y167F); test: ITC; ITC: 10 mM NaPi pH 6.5, 10 mM 2-mercaptoethanol, 30 C, protein titrated into RNA; NMR: 10 mM NaPi pH 6.5, 1 mM DTT (303 K stated for UP1-R140A:ISS-N1-u25g); conditions: protein: recombinant; single strand
Chain of hnRNP A1 RRM2 Y167F (P09651 95-196 Y167F): as the sequence (P09651 95-196 R140A) above, with A46R, Y73F counted along it

[15] = molecular target: T3, hnRNP A1 RRM2; test: NMR titration; fast exchange; ITC: 10 mM NaPi pH 6.5, 10 mM 2-mercaptoethanol, 30 C, protein titrated into RNA; NMR: 10 mM NaPi pH 6.5, 1 mM DTT (303 K stated for UP1-R140A:ISS-N1-u25g); conditions: protein: recombinant; single strand
[16] = molecular target: T1, hnRNP A1 RRM1; test: as above; conditions: protein: recombinant; single strand
[17] = molecular target: T1, hnRNP A1 RRM1; test: NMR titration; intermediate exchange; ITC: 10 mM NaPi pH 6.5, 10 mM 2-mercaptoethanol, 30 C, protein titrated into RNA; NMR: 10 mM NaPi pH 6.5, 1 mM DTT (303 K stated for UP1-R140A:ISS-N1-u25g); conditions: protein: recombinant; single strand
[18] = molecular target: T4, UP1 (UniProt P09651 1-196); test: NMR titration; intermediate exchange, both RRMs; ITC: 10 mM NaPi pH 6.5, 10 mM 2-mercaptoethanol, 30 C, protein titrated into RNA; NMR: 10 mM NaPi pH 6.5, 1 mM DTT (303 K stated for UP1-R140A:ISS-N1-u25g); conditions: protein: recombinant; single strand
T4 sequence (P09651 1-196): as the sequence (P09651 1-196 F17A/F59A) above, with A17F, A59F counted along it

[19] = molecular target: T5, UP1 R140A (UniProt P09651 1-196, R140A); test: NMR titration; 1 equivalent RNA; ITC: 10 mM NaPi pH 6.5, 10 mM 2-mercaptoethanol, 30 C, protein titrated into RNA; NMR: 10 mM NaPi pH 6.5, 1 mM DTT (303 K stated for UP1-R140A:ISS-N1-u25g); conditions: protein: recombinant; single strand
T5 sequence (P09651 1-196 R140A): as the sequence (P09651 1-196 F17A/F59A) above, with A17F, A59F, R140A counted along it

[20] = molecular target: T4, UP1; test: NMR titration; broad lines; ITC: 10 mM NaPi pH 6.5, 10 mM 2-mercaptoethanol, 30 C, protein titrated into RNA; NMR: 10 mM NaPi pH 6.5, 1 mM DTT (303 K stated for UP1-R140A:ISS-N1-u25g); conditions: protein: recombinant; single strand
[21] = molecular target: T5, UP1 R140A; test: NMR (intermolecular NOEs, structural model); 1:1 complex; RRM2 on 5' motif, RRM1 on 3' motif; ITC: 10 mM NaPi pH 6.5, 10 mM 2-mercaptoethanol, 30 C, protein titrated into RNA; NMR: 10 mM NaPi pH 6.5, 1 mM DTT (303 K stated for UP1-R140A:ISS-N1-u25g); conditions: protein: recombinant; single strand
[22] = molecular target: T4, UP1; test: NMR PRE; 1:1 complex; ITC: 10 mM NaPi pH 6.5, 10 mM 2-mercaptoethanol, 30 C, protein titrated into RNA; NMR: 10 mM NaPi pH 6.5, 1 mM DTT (303 K stated for UP1-R140A:ISS-N1-u25g); conditions: protein: recombinant; label: IA-proxyl spin label on s4U18; single strand
[23] = molecular target: T5, UP1 R140A; test: as above; conditions: protein: recombinant; label: IA-proxyl spin label on s4U18; single strand

T1 sequence (P09651 2-97): as the sequence (P09651 2-97 F23A) above, with A22F counted along it

B1: UUUUAGGUC (ssRNA)
RNA: UUUUAGGUC
Kd [1]: 159 ± 9 nM | Kd [2]: 130 ± 8 nM

B2: UCAGGUC (ssRNA)
RNA: UCAGGUC
Kd [3]: 178 ± 11 nM | Kd [4]: 862 ± 47 nM | Kd [5]: 171 ± 12 nM | Kd [6]: 129 ± 11 nM | Kd [1]: 543 ± 33 nM | Kd [7]: 132 ± 29 nM | Kd [8]: 862 ± 47 nM | Kd [9]: 178 ± 11 nM

B3: UAAGUU (ssRNA)
RNA: UAAGUU
Kd [10]: ~5200 nM | Kd [11]: ~2240 nM | Kd [12]: ~4610 nM | Kd [3]: 685 ± 42 nM | Kd [4]: ~3300 nM | Kd [5]: 658 ± 44 nM | Kd [6]: 543 ± 31 nM | Kd [7]: 429 ± 27 nM | Kd [9]: 685 ± 42 nM

B4: UGAGUU (ssRNA)
RNA: UGAGUU
Kd [10]: ~5200 nM | Kd [11]: ~2240 nM | Kd [12]: ~3450 nM | Kd [3]: 625 ± 41 nM | Kd [4]: ~2650 nM | Kd [5]: 654 ± 50 nM | Kd [6]: 546 ± 31 nM | Kd [7]: 324 ± 20 nM | Kd [9]: 625 ± 41 nM

B5: UCAGUU (ssRNA)
RNA: UCAGUU
Kd [11]: ~2240 nM | Kd [12]: > 10000 nM | Kd [13]: 1630 nM | Kd [3]: 637 ± 39 nM | Kd [4]: ~2490 nM | Kd [5]: 578 ± 40 nM | Kd [6]: 541 ± 33 nM | Kd [7]: 237 ± 15 nM | Kd [14]: 513 ± 30 nM | Kd [9]: 637 ± 39 nM

B6: UAGGUC (ssRNA)
RNA: UAGGUC
Kd [4]: 685 ± 40 nM | Kd [6]: 98 ± 8 nM | Kd [1]: 625 ± 35 nM | Kd [7]: 227 ± 14 nM | Kd [8]: 685 ± 40 nM | Kd [2]: 602 ± 34 nM

B7: UUAGGGA (ssRNA)
RNA: UUAGGGA
binding result [15]: binds | binding result [16]: binds

B8: CAGCAU (ssRNA)
RNA: CAGCAU
binding result [15]: binds | binding result [16]: binds

B9: UGAAAGU (ssRNA)
RNA: UGAAAGU
binding result [15]: binds | binding result [16]: binds

B10: UUUUAGGU (ssRNA)
RNA: UUUUAGGU
binding result [17]: binds

B11: CGUAGGU (ssRNA)
RNA: CGUAGGU
binding result [17]: binds

B12: UCAGGG (ssRNA)
RNA: UCAGGG
binding result [15]: binds

B13: ISS-N1 WT (ssRNA)
RNA: GGACCAGCAUUAUGAAAGUGA
binding result [18]: binds | binding result [19]: binds

B14: ISS-N1-14g25g (ssRNA)
RNA: GGACCAGGAUUAUGAAAGGGC
binding result [20]: binds | binding result [19]: binds

B15: ISS-N1-c14g (ssRNA)
RNA: GGACCAGGAUUAUGAAAGUGC
binding result [19]: binds

B16: ISS-N1-u25g (ssRNA)
RNA: GGACCAGCAUUAUGAAAGGGA
binding result [21]: binds

B17: modified ISS-N1 (spin-labeled) (XNA)
RNA: ACCAGCAUUAUGAAAGGUA
modifications: 4-thio-U at position 18
binding result [22]: binds | binding result [23]: binds
